According to patent US12037382 (STICHTING VU, dated 2024):

Columns and labels:
[1] = molecular target: T1, US28 wild type, G protein-coupled receptor of human cytomegalovirus strain VHL/E (human cytomegalovirus strain VHL/E); test: competition of unlabeled CX3CL1 against 125I-CX3CL1 on US28
T1 construct: whole, on cells; In some assays membranes of transfected cells were used; also called US28-WT; US28 VHL/E

[2] = molecular target: T1, US28 wild type, G protein-coupled …; test: displacement of 125I-CX3CL1 from US28-expressing HEK293T membranes by unlabeled CX3CL1

B1: human chemokine CX3CL1 (ligand, UniProt P78423 25-100, looked up)
chain: QHHGVTKCNITCSKMTSKIPVALLIHYQQNQASCGKRAIILETRQHRLFCADPKEQWVKDAMQHLDRQAAALTRNG
modifications: 125I label where used as radioligand
notes: also called CX3CL1/Fractalkine
Q: How did the “IC50 (read off the curve)” value [1] turn out when B1 was run?
A: Its value is roughly 100 pM.

Q: What about the “IC50 (read off the curve)” value [2] of the same binder?
A: Its value is roughly 300 pM.
